From patent publication US20260022175A1 (Chugai, published 2026)
Numbering of substitutions follows the chain as printed. Blank lines part the entries; values can stand above or below the binder they belong to.

Legend:
[1] = target: T1, human CTLA4 (human); test: SPR Biacore T200, 37C, antibody captured, ATP 10 uM
T1 construct: also called hCTLA4; hCTLA4-His-BAP

[2] = target: T1, human CTLA4; test: SPR Biacore T200, 37C, antibody captured, no ATP, steady state model
[3] = target: T1, human CTLA4; test: SPR Biacore T200, 37C, antibody captured, ADP 10 uM;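 also: antibodies held on a Protein G CM3 chip, human CTLA4 as analyte in ACES pH 7.4 buffer, rates from a global 1:1 Langmuir fit, Kd from rates or steady state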
[4] = target: T1, human CTLA4; test: SPR Biacore T200, 37C, antibody captured, AMP 10 uM
[5] = target: T2, cynomolgus monkey CTLA4 (CyCTLA4-His-BAP) (cynomolgus monkey); test: SPR Biacore T200, 37C, antibody captured, ATP 10 uM
[6] = target: T3, mouse CTLA4 extracellular region linked with a His-tag (mCTLA4-His) (mouse, UniProt P09793 36-161); test: as above
[7] = target: T1, human CTLA4; test: as above; remark: listed apart in the source
[8] = target: T1, human CTLA4; test: SPR Biacore T200, 37C, antibody captured, ATP 1 uM
[9] = target: T2, cynomolgus monkey CTLA4 …; test: SPR Biacore T200, 37C, antibody captured, ATP 1 uM
[10] = target: T3, mouse CTLA4 extracellular region linked …; test: SPR Biacore T200, 37C, antibody captured, ATP 1 uM
[11] = target: T1, human CTLA4; test: SPR Biacore T200, 37C, antibody captured, ATP 1 uM; remark: listed apart in the source
[12] = target: T1, human CTLA4; test: SPR Biacore T200, 37C, antibody captured, no ATP, steady state model; remark: listed apart in the source
[13] = target: T1, human CTLA4; test: SPR Biacore T200, 37C, antibody captured, ATP 100 uM
[14] = target: T2, cynomolgus monkey CTLA4 …; test: as above
[15] = target: T3, mouse CTLA4 extracellular region linked …; test: as above
[16] = target: T1, human CTLA4; test: as above; remark: listed apart in the source
[17] = target: T1, human CTLA4; test: SPR Biacore T200, 37C, antibody captured, ATP 10 uM; remark: listed apart in the source
[18] = target: T1, human CTLA4; test: as above; remark: listed apart in the source
[19] = target: T4, mCTLA4-His (mouse CTLA4 extracellular region linked with a His-tag) (mouse, UniProt P09793 36-161); test: SPR 37C, ATP 100 µM
[20] = target: T4, mCTLA4-His (mouse CTLA4 extracellular …); test: SPR 37C, ATP 10 µM
[21] = target: T5, Abatacept (human IgG1 constant region fused to hCTLA4) (human, UniProt P16410 38-161, biotinylated by amine coupling); test: phage ELISA
T5 construct: bought drug; also called Abatacept-Biotin; biotin-labeled abatacept
T5 sequence (looked up): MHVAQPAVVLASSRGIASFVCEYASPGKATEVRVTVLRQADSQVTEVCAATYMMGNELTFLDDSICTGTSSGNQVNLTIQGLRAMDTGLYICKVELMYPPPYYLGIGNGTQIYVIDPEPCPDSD

[22] = target: T6, hCTLA4-His-BAP (human CTLA4 extracellular region with C-terminal His-tag and BAP-tag) (human, biotin on the BAP-tag); test: SPR 37C, ATP 10 µM
T6 construct: also called hCTLA4-His-Biotin

[23] = target: T6, hCTLA4-His-BAP (human CTLA4 …); test: SPR 37C, ATP 100 µM
[24] = target: T6, hCTLA4-His-BAP (human CTLA4 …); test: SPR 37C, no ATP, steady state model
[25] = target: T6, hCTLA4-His-BAP (human CTLA4 …); test: SPR 37C, ATP 10 µM; remark: listed apart in the source

T2 sequence (chain, as listed by the source limits assumed): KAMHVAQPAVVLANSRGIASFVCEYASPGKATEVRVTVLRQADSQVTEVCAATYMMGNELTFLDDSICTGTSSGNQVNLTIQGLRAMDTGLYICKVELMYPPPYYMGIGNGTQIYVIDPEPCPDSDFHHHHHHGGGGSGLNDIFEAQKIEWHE
T6 sequence (chain, as listed by the source limits assumed): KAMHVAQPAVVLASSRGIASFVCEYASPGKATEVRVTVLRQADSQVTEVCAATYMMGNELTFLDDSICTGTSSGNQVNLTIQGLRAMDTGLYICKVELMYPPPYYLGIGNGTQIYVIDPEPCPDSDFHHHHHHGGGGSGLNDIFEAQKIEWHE

B1: 04H1389-G1m/04L1305-k0MT (antibody, human IgG1, kappa)
heavy: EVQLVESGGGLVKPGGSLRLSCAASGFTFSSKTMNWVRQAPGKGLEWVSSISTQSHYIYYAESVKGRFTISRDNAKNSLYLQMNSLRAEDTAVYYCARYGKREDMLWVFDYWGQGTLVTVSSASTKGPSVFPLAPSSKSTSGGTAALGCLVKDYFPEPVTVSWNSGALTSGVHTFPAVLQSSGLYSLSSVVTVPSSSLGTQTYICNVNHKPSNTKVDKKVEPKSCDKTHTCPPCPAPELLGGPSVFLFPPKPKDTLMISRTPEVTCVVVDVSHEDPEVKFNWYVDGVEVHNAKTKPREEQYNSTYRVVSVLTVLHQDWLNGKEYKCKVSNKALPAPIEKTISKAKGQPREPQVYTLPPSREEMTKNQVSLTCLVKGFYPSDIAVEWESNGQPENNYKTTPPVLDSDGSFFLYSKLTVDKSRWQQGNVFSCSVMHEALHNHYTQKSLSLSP
light: DIVMTQSPLSLPVTPGEPASISCDGPSTGVGDYNYVHWYQQKPGQAPRLLIYFTSKKPSGVPDRFSGSGSGTDFTLKISRVEAEDVGVYYCQTYAAPLGPMFGQGTKLEIKRTVAAPSVFIFPPSDEQLKSGTASVVCLLNNFYPREAKVQWKVDNALQSGNSQESVTEQDSKDSTYSLSSTLTLSKADYEKHKVYACEVTHQGLSSPVTKSFNRGEC
- Kd [1]: 17 nM
- koff [1]: 0.0019 s⁻¹
- kon [1]: 110000 M⁻¹ s⁻¹
- Kd [2]: 2400 nM
- Kd [3]: 25 nM
- koff [3]: 0.0038 s⁻¹
- kon [3]: 160000 M⁻¹ s⁻¹
- Kd [4]: 79 nM
- koff [4]: 0.012 s⁻¹
- kon [4]: 150000 M⁻¹ s⁻¹
- Kd [5]: 26 nM
- Kd [6]: 32 nM
- Kd [7]: 14 nM
- Kd [8]: 82 nM
- Kd [9]: 140 nM
- Kd [10]: 210 nM
- Kd [11]: 72 nM
- Kd [12]: 3200 nM
- Kd [13]: 5.4 nM
- Kd [14]: 12 nM
- Kd [15]: 12 nM
- Kd [16]: 4.6 nM
- Kd [17]: 19 nM
- Kd [18]: 15 nM

B3: ABAM001 (antibody, human IgG1, V domains shown)
VH: EVQLVESGGDLVKPGGGLRLSCAASGFTFSSYTMHWVRQAPGKGLEWVSSISSRSRYKYYADSVKGRFTISRDNAKNSLYLQMNSLRAEDTAVYYCARFGIKNKRNWVLDYWGQGTLVTVSS
VL: QSALTQPPSASGSPGQTVTISCTGTSTDVGAYNYVSWYQQHPGKAPKLMIYQVSKRPSGVPDRFSGSKSGNTASLTVSGLQAEDEADYFCSLYTTRPQLAFGGGTKLTVL
notes: also called ABADh11-4_020
- binding result [21]: binds

B5: 04H1389-G1m/04L1086-lam1 (antibody, human IgG1, lambda, V domains shown)
VH: EVQLVESGGGLVKPGGSLRLSCAASGFTFSSKTMNWVRQAPGKGLEWVSSISTQSHYIYYAESVKGRFTISRDNAKNSLYLQMNSLRAEDTAVYYCARYGKREDMLWVFDYWGQGTLVTVSS
VL: QSALTQPPSASGSPGQTVTISCDGPSTGVGDYNYVHWYQQHPGKAPKLMIYFTSKKPSGVPDRFSGSKSGNTASLTVSGLQAEDEADYFCQTYAAPLGPMFGGGTKLTVLG
- fold enhancement of binding ability against parent 04H1207-G1m/04L1086-lam1 [22]: ~10 fold

B6: 04H1382-G1m/04L1086-lam1 (antibody, human IgG1, lambda, V domains shown)
VH: B5 VH with E62R
VL: B5 VL
- fold enhancement of binding ability against parent 04H1208-G1m/04L1086-lam1 [22]: ~10 fold

B7: 04H1389-G1m/04L1086-lam1 (antibody, human IgG1, lambda, V domains shown)
VH: B5 VH
VL: B5 VL
- Kd [1]: 32 nM
- koff [1]: 0.0032 s⁻¹
- kon [1]: 100000 M⁻¹ s⁻¹
- Kd [2]: 5700 nM
- Kd [3]: 44 nM
- koff [3]: 0.0061 s⁻¹
- kon [3]: 140000 M⁻¹ s⁻¹
- Kd [4]: 130 nM
- koff [4]: 0.018 s⁻¹
- kon [4]: 140000 M⁻¹ s⁻¹
- Kd [8]: 180 nM
- Kd [12]: 5100 nM
- Kd [13]: 21 nM
- Kd [17]: 43 nM
- Kd [18]: 37 nM

B8: 04H1077-G1m/04L1305-k0MT (antibody, human IgG1, kappa, V domains shown)
VH: B5 VH with G10D, S17G, K32R, Q54R, H56G
VL: DIVMTQSPLSLPVTPGEPASISCDGPSTGVGDYNYVHWYQQKPGQAPRLLIYFTSKKPSGVPDRFSGSGSGTDFTLKISRVEAEDVGVYYCQTYAAPLGPMFGQGTKLEIKR
- Kd [23]: 56 nM
- Kd [24]: 6500 nM
- Kd [25]: 360 nM

Other lines, results leading:

- Kd [19]: 110 nM
- Kd [20]: 110 nM
B2: hUH02-G1d/hUL01-k0 (antibody, human IgG1, kappa, V domains shown)
VH: QVQLQESGPGLVKPSETLSLTCTVSGYSISSGYGWNWIRQPPGKGLEWIGFIYYEGSTYYNPSIKSRISITRDTSKNQFFLQVNSVTTEDTATYYCARQTGYFDYWGQGTLVTVSS
VL: DIVMTQSPDSLAVSLGERATINCKSSQSLFNSNAKTNYLNWYQQKPGQPPKLLIYYASTRHTGVPDRFSGSGSGTDFTLTISSLQAEDVAVYYCQQWYDYPYTFGAGTKVEIKR
notes: also called anti-mouse CTLA4 antibody

- binding result [21]: binds
B4: ABAM003 (antibody, human IgG1, V domains shown)
VH: B3 VH with S31G, K58A, Y59S, K104H, R105L, L109F
VL: QSALTQPPSASGSPGQTVTISCTGTSSDVGDYNYVSWYQQHPGKAPKLMIYGVSKRPSGVPDRFSGSKSGNTASLTVSGLQAEDEADYFCSTVSTSHSPVFGGGTKLTVL
notes: also called ABADh12-4_014
